Residue numbers refer to the chain shown, from its start.
B1: 纳米抗体N5 (VHH)
VHH: QVQLVESGGGPVQAGGSLRLSCAAAGSALSIYRMGWYRQAPGKQRELVAFITTGGSTDHIDSVKGRFTISRDNAKNTVYLQMNSLKPEDTAVYYCNSDPPWVLGADWGQGTQVTVSS
notes: also called R5
B2: 纳米抗体N1 (VHH)
VHH: QVQLVESGGGLVQPGGSLRLSCTASGSGFSNNNMAWYRQAPGKAREWVAAVSSSGNTNYAASAKGRFTISRDNAKNTVYLQMSSLKPEDTAVYYCYAVAPEGGDSWGQGTQVTVSS
notes: also called R1
B3: 纳米抗体N10 (VHH)
VHH: B2 VHH with Q13E, P14A, T23A, S27I, G28I, N31I, A44P, A63V, V78L
notes: also called R10
B4: 纳米抗体N3 (VHH)
VHH: QVQLVESGGGLVQAGGSLRLSCRASGSVFTMGWHRQAPGNGREFVASITRDGNANYKGSVKDRFTISRDNGKNTLYLQMNSLKPEDTAVYYCIDYNTSTWGQGTQVTVSS
notes: also called R3
B5: 纳米抗体N22 (VHH)
VHH: QVQLVESGGGLVQAGGSLRLSCRASGTVFNMGWHRQAPGQQREFVASISHDGRTNYAGSVKGRFTISRDNTKNTLYLQMNSLKPEDTAVYYCIDYHTSLWGQGTQVTVSS
notes: also called R22

What follows are binders tested against 新冠病毒刺突蛋白(S蛋白) (SARS-CoV-2, UniProt P0DTC2 14-1213) (assay: cell-based or functional assay).

Row | Binder | 假病毒中和 IC50
1 | B1 | 0.023 µg/mL

Each binder was assayed against T1, SARS-CoV2病毒表面SPIKE蛋白的RBD结构域 (SARS-CoV-2, UniProt P0DTC2 319-541) (assay: SPR (Biacore)).
T1 construct: domain: RBD结构域

Row | Binder | Kd
2 | B2 | 0.56 nM
3 | B3 | 0.59 nM
4 | B1 | 5.3 nM
5 | B4 | 1.4 nM
6 | B5 | 0.19 nM
